In patent US6605443 (LUDWIG INSTITUTE FOR CANCER RESEARCH, dated 2003):

Experiments:
[1] = molecular target: T1, heteromeric complex of kinase-deficient TβR-II and TβR-I (UniProt P36897 34-503; P37173 23-567); test: co-immunoprecipitation with Flag antiserum of 125I-TGF-β1 affinity-labeled receptors, COS cells
T1 construct: whole, on cells; also called TβR-II KD with TβR-I
Procedure: (§1) To obtain insight into the mechanism by which Smad7 exerts its negative role in signaling by TGF-β family members, it was tested whether Smad7, like Smad2 and Smad3 (Zhang et al., *Nature* 383:168–172, 1996; Macías-Silva et al., *Cell* 87:1215–1224, 1996; Nakao et al., 1997), can associate with the TGF-β receptor complex. COS cells transfected with N-terminally Flag-tagged Smad7 in combination with TβR-II (wild-type, WT, or kinase-deficient mutant, KD) and TβR-I (wild-type or kinase deficient mutant) were affinity labeled with ^125I-TGF-β1, and cell lysates were subjected to immunoprecipitation with Flag antiserum against the Flag-epitope in Smad7. Immunoprecipitates were analyzed by SDS-PAGE and FujiX Bio-Imager. Expression of receptors and F-Smad7 after transfection was determined by immunoprecipitation with VPN antibody against TβR-I or DRL antibody against TβR-II on aliquots of cell lysates, and by immunoprecipitation with Flag antibody on lysates [^35S]methionine/cysteine labeled transfected cells. […] In contrast, Smad2 and Smad3 interact stably only with complex of […] (Macías-Silva et al., 1996; Nakao et al., 1997). No interaction was observed between Smad7 and a heteromeric complex of kinase-deficient TβR-II and TβR-I, or with TβR-II alone (FIG. 3). […]

TβR-II alone = molecular target: T2, TβR-II alone (UniProt P37173 23-567, limits assumed); test: as above
T2 construct: whole, on cells
Procedure: as §1

T1 sequence (P36897 34-503 limits assumed, chain 1 of 2): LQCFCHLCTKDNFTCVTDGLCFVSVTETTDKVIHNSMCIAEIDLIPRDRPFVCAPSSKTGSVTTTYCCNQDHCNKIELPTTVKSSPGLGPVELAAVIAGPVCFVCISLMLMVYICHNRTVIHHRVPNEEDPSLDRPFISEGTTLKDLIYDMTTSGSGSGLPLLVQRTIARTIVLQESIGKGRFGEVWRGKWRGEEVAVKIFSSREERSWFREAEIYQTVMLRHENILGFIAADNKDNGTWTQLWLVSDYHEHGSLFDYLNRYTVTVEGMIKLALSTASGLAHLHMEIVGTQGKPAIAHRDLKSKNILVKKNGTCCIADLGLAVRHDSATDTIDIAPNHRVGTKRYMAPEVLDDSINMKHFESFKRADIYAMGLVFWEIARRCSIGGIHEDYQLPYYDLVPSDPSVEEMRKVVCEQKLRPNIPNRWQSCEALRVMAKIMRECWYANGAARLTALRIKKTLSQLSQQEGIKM
T1 sequence (P37173 23-567 K277R limits assumed, chain 2 of 2): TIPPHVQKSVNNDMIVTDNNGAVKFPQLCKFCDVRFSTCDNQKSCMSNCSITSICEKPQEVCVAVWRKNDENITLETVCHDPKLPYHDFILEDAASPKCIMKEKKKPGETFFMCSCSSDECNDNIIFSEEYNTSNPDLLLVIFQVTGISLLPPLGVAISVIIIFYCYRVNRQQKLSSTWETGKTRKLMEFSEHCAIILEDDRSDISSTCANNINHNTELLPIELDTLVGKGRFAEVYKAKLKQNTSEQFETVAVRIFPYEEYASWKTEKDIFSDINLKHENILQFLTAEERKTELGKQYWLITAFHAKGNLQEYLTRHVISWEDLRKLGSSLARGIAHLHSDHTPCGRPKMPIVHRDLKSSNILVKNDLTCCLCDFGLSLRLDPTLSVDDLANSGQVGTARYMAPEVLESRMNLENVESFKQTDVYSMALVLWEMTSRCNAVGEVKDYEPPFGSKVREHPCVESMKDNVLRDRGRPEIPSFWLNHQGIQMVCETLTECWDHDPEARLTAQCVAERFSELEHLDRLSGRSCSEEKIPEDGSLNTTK
T2 sequence (P37173 23-567 limits assumed): as the sequence (P37173 23-567 K277R limits assumed, chain 2 of 2) above, with R255K counted along it

binding result [1]: no binding
binding result (TβR-II alone): no binding
B1: N-terminally Flag-tagged Smad7 (F-Smad7) (other, not shown: small tags and cut ends)
chain: MFRTKRSALVRRLWRSRAPGGEDEEEGVGGGGGGGELRGEGATDGRAYGAGGGGAGRAGCCLGKAVRGAKGHHHPHPPTSGAGAAGGAEADLKALTHSVLKKLKERQLELLLQAVESRGGTRTACLLLPGRLDCRLGPGAPASAQPAQPPSSYSLPLLLCKVFRWPDLRHSSEVKRLCCCESYGKINPELVCCNPHHLSRLCELESPPPPYSRYPMDFLKPTAGCPDAVPSSAETGGTNYLAPGGLSDSQLLLEPGDRSHWCVVAYWEEKTRVGRLYCVQEPSLDIFYDLPQGNGFCLGQLNSDNKSQLVQKVRSKIGCGIQLTREVDGVWVYNRSSYPIFIKSATLDNPDSRTLLVHKVFPGFSIKAFDYEKAYSLQRPNDHEFMQQPWTGFTVQISFVKGWGQCYTRQFISSCPCWLEVIFNSR
notes: Expressed by transfection in COS cells and immunoprecipitated with Flag antibody; also called F-mSmad7; mSmad7
